This is an account of results in patent publication US20210261648A1 (published 2021).

The target of assay [1] is T1, FcγRIa extracellular domain with C-terminal His tag (human, UniProt P12314 16-292).
T1 construct: also called FcgRIa
The assay is described as follows: SPR, captured antibody, FcgR analyte. In general terms: SPR reads the build-up and loss of mass on a sensor chip optically.
Method: (§1) Relative binding activities were calculated for the results of analyzing interactions with the respective FcγRs according to the following method.

The target of assay [2] is T2, FcγRIIb extracellular domain with C-terminal His tag (human, UniProt P31994 43-217).
T2 construct: extracellular domain; also called FcgRIIb
T2 sequence (looked up): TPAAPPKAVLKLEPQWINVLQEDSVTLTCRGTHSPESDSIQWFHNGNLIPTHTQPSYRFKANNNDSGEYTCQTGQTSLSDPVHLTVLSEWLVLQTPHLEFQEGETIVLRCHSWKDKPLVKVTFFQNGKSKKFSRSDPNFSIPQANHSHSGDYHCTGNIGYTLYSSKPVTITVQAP
Put plainly: SPR, captured antibody, FcgR analyte.
Method: as §1

For the next assay, the target named is T3, FcγRIIa type R (human, UniProt P12318 34-217).
T3 chain: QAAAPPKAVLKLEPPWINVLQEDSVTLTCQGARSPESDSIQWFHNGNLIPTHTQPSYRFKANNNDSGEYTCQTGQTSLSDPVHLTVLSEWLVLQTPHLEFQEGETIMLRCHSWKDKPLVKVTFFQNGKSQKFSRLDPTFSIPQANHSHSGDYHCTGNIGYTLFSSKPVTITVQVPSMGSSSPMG
The assay is described as follows: SPR (Biacore), captured antibody, soluble FcγR.

T1 sequence (P12314 16-292): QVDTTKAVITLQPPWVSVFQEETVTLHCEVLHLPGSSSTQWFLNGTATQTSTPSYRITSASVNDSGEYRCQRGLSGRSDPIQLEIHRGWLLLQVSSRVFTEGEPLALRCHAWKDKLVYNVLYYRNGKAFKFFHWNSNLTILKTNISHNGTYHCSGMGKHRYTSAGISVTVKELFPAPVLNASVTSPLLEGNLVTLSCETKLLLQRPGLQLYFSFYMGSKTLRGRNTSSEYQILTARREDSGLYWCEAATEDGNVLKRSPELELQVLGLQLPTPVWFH

B1: IL6R-2B261/IL6R-L (antibody, human IgG1, kappa)
heavy: QVQLQESGPGLVKPSETLSLTCAVSGHSISHDHAWSWVRQPPGEGLEWIGFISYSGITNYNPSLQGRVTISRDNSKNTLYLQMNSLRAEDTAVYYCARSLARTTAMDYWGEGTLVTVSSASTKGPSVFPLAPSSKSTSGGTAALGCLVKDYFPEPVTVSWNSGALTSGVHTFPAVLQSSGLYSLSSVVTVPSSSLGTQTYICNVNHKPSNTKVDKKVEPKSCDKTHTCPPCPAPDLLGGDSVFLFPPKPKDTLMISRTPEVTCVVVDVSHEDPEVKFNWYVDGVEVHNAKTKPREEQDNSTYRVVSVLTVLHQDWLNGKEYKCKVSNKALPAPIEKTISKAKGQPREPQVYTLPPSRDELTKNQVSLTCLVKGFYPSDIAVEWESNGQPENNYKTTPPVLDSDGSFFLYSKLTVDKSRWQQGNVFSCSVMHEALHNHYTQESLSLSP
light: not shown
With B1, the relative binding activity in assay [1] was 100 relative (IL6R-BF648/IL6R-L = 100); in assay [2], 115 relative (IL6R-BF648/IL6R-L = 100).

B2: IL6R-BP181/IL6R-L (antibody, human IgG1, kappa)
heavy: QVQLQESGPGLVKPSETLSLTCAVSGHSISHDHAWSWVRQPPGEGLEWIGFISYSGITNYNPSLQGRVTISRDNSKNTLYLQMNSLRAEDTAVYYCARSLARTTAMDYWGEGTLVTVSSASTKGPSVFPLAPSSKSTSGGTAALGCLVKDYFPEPVTVSWNSGALTSGVHTFPAVLQSSGLYSLSSVVTVPSSSLGTQTYICNVNHKPSNTKVDKKVEPKSCDKTHTCPPCPAPDLLGGDSVFLFPPKPKDTLMISRTPEVTCVVVDVSHEDGEVKFNWYVDGVEVHNAKTKPREEQYNSTYRVVSVLTVLHQDWLNGKEYKCKVSNAALPKPIEKTISKAKGQPREPQVYTLPPSRDELTKNQVSLTCLVKGFYPSDIAVEWESNGQPENNYKTTPPVLDSDGSFFLYSKLTVDKSRWQQGNVFSCSVMHEALHNHYTQESLSLSP
light: not shown
Take B2: the relative binding activity in assay [1] is 108 relative (IL6R-BF648/IL6R-L = 100).

B3: IL6R-BP085/IL6R-L (antibody, human IgG1, kappa)
heavy: QVQLQESGPGLVKPSETLSLTCAVSGHSISHDHAWSWVRQPPGEGLEWIGFISYSGITNYNPSLQGRVTISRDNSKNTLYLQMNSLRAEDTAVYYCARSLARTTAMDYWGEGTLVTVSSASTKGPSVFPLAPSSKSTSGGTAALGCLVKDYFPEPVTVSWNSGALTSGVHTFPAVLQSSGLYSLSSVVTVPSSSLGTQTYICNVNHKPSNTKVDKKVEPKSCDKTHTCPPCPAPELLGDDSVFLFPPKPKDTLMISRTPEVTCVVVDVSHEDPEVKFNWYVDGVEVHNAKTKPREEQYNSTYRVVSVLTVLHQDWLNGKEYKCKVSNKALPKPIEKTISKAKGQPREPQVYTLPPSRDELTKNQVSLTCLVKGFYPSDIAVEWESNGQPENNYKTTPPVLDSDGSFFLYSKLTVDKSRWQQGNVFSCSVMHEALHNHYTQESLSLSP
light: not shown
For B3, the relative binding activity in assay [1] is 19 relative (IL6R-BF648/IL6R-L = 100); in assay [2], 152 relative (IL6R-BF648/IL6R-L = 100).

B4: IL6R-BP264/IL6R-L (antibody, human IgG1, kappa)
heavy: QVQLQESGPGLVKPSETLSLTCAVSGHSISHDHAWSWVRQPPGEGLEWIGFISYSGITNYNPSLQGRVTISRDNSKNTLYLQMNSLRAEDTAVYYCARSLARTTAMDYWGEGTLVTVSSASTKGPSVFPLAPSSKSTSGGTAALGCLVKDYFPEPVTVSWNSGALTSGVHTFPAVLQSSGLYSLSSVVTVPSSSLGTQTYICNVNHKPSNTKVDKKVEPKSCDKTHTCPPCPAPDLLGDDSVFLFPPKPKDTLMISRTPEVTCVVVDVSEEDGEVKFNWYVDGVEVHNAKTKPREEQDNSTYRVVSVLTVLHQDWLNGKEYKCKVSNKALPRPIEKTISKAKGQPREPQVYTLPPSRDELTKNQVSLTCLVKGFYPSDIAVEWESNGQPENNYKTTPPVLDSDGSFFLYSKLTVDKSRWQQGNVFSCSVMHEALHNHYTQESLSLSP
light: not shown
notes: E233D/G237D/P238D/H268E/P271G/Y296D/A330R (EU numbering) in IL6R-B3
Usually Kd stands for the concentration at which binding is half-saturated. A high value points to weaker binding. B4 came in with a dissociation constant (Kd) with FcγRIIa type R of 350 nM. That is a sub-micromolar value.

B5: IL6R-BP253/IL6R-L (antibody, human IgG1, kappa)
heavy: QVQLQESGPGLVKPSETLSLTCAVSGHSISHDHAWSWVRQPPGEGLEWIGFISYSGITNYNPSLQGRVTISRDNSKNTLYLQMNSLRAEDTAVYYCARSLARTTAMDYWGEGTLVTVSSASTKGPSVFPLAPSSKSTSGGTAALGCLVKDYFPEPVTVSWNSGALTSGVHTFPAVLQSSGLYSLSSVVTVPSSSLGTQTYICNVNHKPSNTKVDKKVEPKSCDKTHTCPPCPAPELLGGPSVFLFPPKPKDTLMISRTPEVTCVVVDVEHEDPEVKFNWYVDGVEVHNAKTKPREEQYNSTYRVVSVLTVLHQDWLNGKEYKCKVSNKAFPAPIEKTISKAKGQPREPQVYTLPPSRDELTKNQVSLTCLVKGFYPSDIAVEWESNGQPENNYKTTPPVLDSDGSFFLYSKLTVDKSRWQQGNVFSCSVMHEALHNHYTQESLSLSP
light: not shown
notes: S267E/L328F (EU numbering) in IL6R-B3; comparative control
B5 showed a dissociation constant Kd with FcγRIIa type R of 2.1 nM.

B6: IL6R-BP191/IL6R-L (antibody, human IgG1, kappa)
heavy: QVQLQESGPGLVKPSETLSLTCAVSGHSISHDHAWSWVRQPPGEGLEWIGFISYSGITNYNPSLQGRVTISRDNSKNTLYLQMNSLRAEDTAVYYCARSLARTTAMDYWGEGTLVTVSSASTKGPSVFPLAPSSKSTSGGTAALGCLVKDYFPEPVTVSWNSGALTSGVHTFPAVLQSSGLYSLSSVVTVPSSSLGTQTYICNVNHKPSNTKVDKKVEPKSCDKTHTCPPCPAPDLLGGDSVFLFPPKPKDTLMISRTPEVTCVVVDVSDEDGEVKFNWYVDGVEVHNAKTKPREEQYNSTYRVVSVLTVLHQDWLNGKEYKCKVSNAALPKPIEKTISKAKGQPREPQVYTLPPSRDELTKNQVSLTCLVKGFYPSDIAVEWESNGQPENNYKTTPPVLDSDGSFFLYSKLTVDKSRWQQGNVFSCSVMHEALHNHYTQESLSLSP
light: not shown
Turning to B6, in assay [1], the relative binding activity is 125 relative (IL6R-BF648/IL6R-L = 100).

B7: IL6R-BP083/IL6R-L (antibody, human IgG1, kappa)
heavy: QVQLQESGPGLVKPSETLSLTCAVSGHSISHDHAWSWVRQPPGEGLEWIGFISYSGITNYNPSLQGRVTISRDNSKNTLYLQMNSLRAEDTAVYYCARSLARTTAMDYWGEGTLVTVSSASTKGPSVFPLAPSSKSTSGGTAALGCLVKDYFPEPVTVSWNSGALTSGVHTFPAVLQSSGLYSLSSVVTVPSSSLGTQTYICNVNHKPSNTKVDKKVEPKSCDKTHTCPPCPAPELLGGDSVFLFPPKPKDTLMISRTPEVTCVVVDVSHEDPEVKFNWYVDGVEVHNAKTKPREEQDNSTYRVVSVLTVLHQDWLNGKEYKCKVSNKALPKPIEKTISKAKGQPREPQVYTLPPSRDELTKNQVSLTCLVKGFYPSDIAVEWESNGQPENNYKTTPPVLDSDGSFFLYSKLTVDKSRWQQGNVFSCSVMHEALHNHYTQESLSLSP
light: not shown
Regarding B7, the relative binding activity in assay [1] was 50 relative (IL6R-BF648/IL6R-L = 100); in assay [2], 122 relative (IL6R-BF648/IL6R-L = 100).

B8: IL6R-BP082/IL6R-L (antibody, human IgG1, kappa)
heavy: QVQLQESGPGLVKPSETLSLTCAVSGHSISHDHAWSWVRQPPGEGLEWIGFISYSGITNYNPSLQGRVTISRDNSKNTLYLQMNSLRAEDTAVYYCARSLARTTAMDYWGEGTLVTVSSASTKGPSVFPLAPSSKSTSGGTAALGCLVKDYFPEPVTVSWNSGALTSGVHTFPAVLQSSGLYSLSSVVTVPSSSLGTQTYICNVNHKPSNTKVDKKVEPKSCDKTHTCPPCPAPDLLGGDSVFLFPPKPKDTLMISRTPEVTCVVVDVSHEDPEVKFNWYVDGVEVHNAKTKPREEQYNSTYRVVSVLTVLHQDWLNGKEYKCKVSNKALPKPIEKTISKAKGQPREPQVYTLPPSRDELTKNQVSLTCLVKGFYPSDIAVEWESNGQPENNYKTTPPVLDSDGSFFLYSKLTVDKSRWQQGNVFSCSVMHEALHNHYTQESLSLSP
light: not shown
In the case of B8, the relative binding activity is 74 relative (IL6R-BF648/IL6R-L = 100) in assay [1] and 136 relative (IL6R-BF648/IL6R-L = 100) in assay [2].

B9: IL6R-BP428/IL6R-L (antibody, human IgG1, kappa)
heavy: QVQLQESGPGLVKPSETLSLTCAVSGHSISHDHAWSWVRQPPGEGLEWIGFISYSGITNYNPSLQGRVTISRDNSKNTLYLQMNSLRAEDTAVYYCARSLARTTAMDYWGEGTLVTVSSASTKGPSVFPLAPSSKSTSGGTAALGCLVKDYFPEPVTVSWNSGALTSGVHTFPAVLQSSGLYSLSSVVTVPSSSLGTQTYICNVNHKPSNTKVDKKVEPKSCDKTHTCPPCPAPDLLGDDSVFLFPPKPKDTLMISRTPEVTCVVVDVGEEDGEVKFNWYVDGVEVHNAKTKPREEQYNSTYRVVSVLTVLHQDWLNGKEYKCKVSNKALPRPIEKTISKAKGQPREPQVYTLPPSRDELTKNQVSLTCLVKGFYPSDIAVEWESNGQPENNYKTTPPVLDSDGSFFLYSKLTVDKSRWQQGNVFSCSVMHEALHNHYTQESLSLSP
light: not shown
notes: Alterations in EU numbering, introduced into IL6R-B3
B9 gave a Kd with FcγRIIa type R of 390 nM.
